The values below come from US20240360206A1 (ALZPATH, published 2024).

One experiment has as its target T1, Peptide C (none).
T1 construct: only Peptide C; also called WZN-1C; T217
T1 peptide: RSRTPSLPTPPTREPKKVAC
The experiment in a line: indirect ELISA, peptide coated on the plate, HRP goat anti-rabbit antibody, TMB, read at 650 nm; axes without titles. The procedure:
(§1) Antibodies were generated and purified. The antibodies were assayed using a standard indirect ELISA protocol. Briefly, peptide antigens corresponding to SEQ ID NOs: 74-81 were diluted to 1 μg/ml in PBS and plated onto a Greiner Bio One Microlon 96 well plate. Peptide antigens were produced by the manufacturer Abcam. WZN-1A and WZN-1B served as targets. WZN-1C, WZN-1D, WZN-1E, WZN-1F, WZN-1G, and WZN-1H served as negative controls. In the peptide antigen sequences, a phosphorylated residue is indicated by (pT) for phosphorylated threonine or (pS) for phosphorylated serine. After blocking with 1% BSA in PBS pH 7.4, antibodies were serially diluted 1 to 4 with an initial concentration of 1 μg/ml. After incubation, unbound antibodies were washed off with 1×TBST and HRP labeled goat anti-rabbit secondary antibody was applied according to the manufacturer's instructions. Subsequently, unbound secondary antibody was washed off with 1×TBST and 3,3′5,5′-tetramethylbenzidine (TMB) was applied for 5 minutes at room temperature and plates were read at 650 nm. Data is seen in FIG. 3.

The target in another experiment is T2, Peptide A (phosphothreonine at position 9 of the peptide (pT217 by the filing's name)).
T2 construct: also called WZN-1A; pT217a
T2 peptide: RSRTPSLPTPPTREPKC
Described as above. The procedure:
as §1

The next experiment addresses T3, Peptide D (phosphothreonine at position 4 of the peptide (pT212 by the filing's name)).
T3 construct: also called WZN-1D; pT212
T3 peptide: RSRTPSLPTPPTREPKC
The description is as above. The procedure:
as §1

For a further experiment, the target named is T4, Peptide B (phosphothreonine at position 6 of the peptide (pT217 by the filing's name)).
T4 construct: also called WZN-1B; pT217b
T4 peptide: TPSLPTPPTREPKKVAC
The experiment is described as above. The protocol:
as §1

For a further experiment, the target named is T5, full length Tau (Tau441) (UniProt P10636-8 1-441).
T5 construct: also called synthetic full length Tau
Description: indirect ELISA on Tau441, antibody titrated. Background: An ELISA detects its analyte on a solid surface through an enzyme-linked reagent.

Numbering of substitutions follows the chain as printed.

One may read the EC50 (read off the curve) as the concentration needed to bring the measured effect to its halfway point.

T5 sequence (P10636 other isoform, or with tags, fused parts or gaps limits assumed): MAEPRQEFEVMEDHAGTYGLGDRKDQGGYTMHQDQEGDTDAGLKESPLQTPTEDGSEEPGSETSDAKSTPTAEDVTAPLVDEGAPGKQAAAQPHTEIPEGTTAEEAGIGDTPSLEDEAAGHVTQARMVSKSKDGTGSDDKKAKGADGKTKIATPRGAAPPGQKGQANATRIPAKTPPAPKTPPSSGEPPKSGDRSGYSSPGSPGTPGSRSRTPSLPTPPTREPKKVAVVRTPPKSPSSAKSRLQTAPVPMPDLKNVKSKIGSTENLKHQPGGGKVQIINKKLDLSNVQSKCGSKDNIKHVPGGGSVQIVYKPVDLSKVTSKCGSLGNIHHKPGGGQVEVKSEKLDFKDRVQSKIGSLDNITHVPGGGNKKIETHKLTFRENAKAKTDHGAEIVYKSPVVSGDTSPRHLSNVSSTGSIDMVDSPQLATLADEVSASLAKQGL

B1: Antibody 1 (antibody, V domains shown)
VH: QSLEESGGRLVTPGTPLTLTCTVSGFSLSSQKVGWVRQAPGKGLEWIGIINNYGSTYYASWAKGRFTISKTSTTVDLRITSLTAEDTATYFCARDPDGSIVFDIWGPGTLVTVSL
VL: AQVLTQTASPVSAAVGGTVTINCQSSQSVVYNNRLSWFQQKPGQPPKLLIYGASTLASGVPSRFKGSGSGTQFTLTISDVQCDDAATYYCLGSYDCSSGDCHAFGGGTEVVVKG
Turning to B1, the binding result in the experiment with Peptide C is “no binding”.

B2: Antibody 4 (antibody, V domains shown)
VH: B1 VH with S29N, S30N, Q31Y, N52Y, G54S, S55Q, R78K, I79L, L82P, A84T
VL: AQVLTQTASPVSAAVGSTVTINCQSSQSVYSNKRLAWFQLKPGQPPKLLIYGASTLASGVPSRFKGSGSGTQFTLTISDVQCDDAATYYCAGGYDCSTGDCWTFGGGTEVVVTG
In the case of B2, the binding result with Peptide C is recorded as “no binding”.

B3: Antibody 3 (antibody, V domains shown)
VH: QSVEESGGRLVTPGTPLTLTCTVSGFSLSSYAMIWVRQAPGKGLEWIGFISRSGITYYASWAKGRFTISKTSTTVDLKMTSLTTEDTATYFCAREFGAVGSDYYRDAFNLWGPGTLVTVSS
VL: DIVMTQTPSSVSAAVGGTVTINCQASQNIYSNLAWYQQKPGQRPRLLIYGASNLASGVPSRFKGSRSGTEFTLTISDLECADAATYYCQGYDYSTAGAYPFGGGTAVVVKG
Take B3: the binding result with Peptide A, with Peptide C, in the experiment with Peptide D and in the experiment with Peptide B was “no binding” throughout.

B4: Antibody 5 (antibody, V domains shown)
VH: B3 VH with R9G, T15G, P16T, S30N, I34S, M79I, L82P, T89A, F108L, N109R
VL: DIVMTQTPSSVSAAVGGTVTIKCQASQSIGSNLAWYQQKPGQPPKLLIYGASTLESGVPSRFKGSGSGTEYTLTISDLECADAATYYCQSYYEGSDIGYAFGGGTEVVVEG
notes: Rabbit monoclonal antibody; also called 62H10L7
As to B4, the figures for the binding result with full length Tau (Tau441) and in the experiment with Peptide C were “no binding (tested: 10^4 ng/mL)” and “no binding”, respectively.

B5: Antibody 2 (antibody, V domains shown)
VH: B3 VH
VL: DIVMTQTPASVEAAVGGTVTINCQASESINSWLSWYQQKPGQPPNLLIYRASTLASGVPSRFSGGGSGTEYTLTISDLECADAVTYYCQSYYEEDGIGYAFGGGTEVVVEG
notes: Rabbit monoclonal antibody; also called 30H10L2
For B5, the binding result with full length Tau (Tau441) was “no binding (tested: 10^4 ng/mL)”; with Peptide C it was “no binding”.

B6: Antibody 6 (antibody, V domains shown)
VH: QSLEESGGRLVTPGTPLTLTCTVSGIDLSTHAMTWVRQAPGKGLEWIGVINPSGSAYYATWVNGRFTISKTSTTVDLKITSPTTGDTAKYFCARDYITAGDYYMDAFDPWGPGTLVTVSS
VL: DIVMTQTPASVSAAVGGTVTIKCQASQSISNQLSWYQQKSGQPPKLLIYRASTLASGVPSRFKGSGSGTEFTLTISDLECADAATYYCQQGYNRDNVDNLFGGGTEVVVKG
notes: Rabbit monoclonal antibody; also called 71H1L2
On to B6, for which the binding result was “no binding (tested: 10^4 ng/mL)” in the experiment with full length Tau (Tau441) and “no binding” with Peptide C.

B7: PT3 (antibody, V domains shown)
VH: EVKLVESGGDLVKPGGSLKLSCAASGFTFSSYAMSWVRQNPEKRLEWVASISKGGNTYYPNSVKGRFTISRDNARNILYLQMSSLRSEDTALYYCARGWGDYGWFAYWGQVTLVTVSA
VL: DIKMTQSPSSMYASLGERVTITCKASQDINRYLNWFQQKPGKSPKTLIYRANRLLDGVPSRFSGSGSGQDYSLTISSLDYEDMGIYYCLQYDEFPLTFGDGTKLELK
Regarding B7, in the experiment with full length Tau (Tau441), the “EC50 (read off the curve)” value is approximately 0.2 µg/mL.
